In US20240294594A1:
pKd: −log10 of the molar value.

How the values were obtained:
[1] = molecular target: FcγRIIIa V158 (human) (UniProt P08637); test: SPR (Biacore 8K), receptor captured via anti-His antibody
[2] = molecular target: FcγRIIb (UniProt P31994); test: as above
[3] = molecular target: FcγRIIIa F158 (human) (UniProt P08637); test: as above
[4] = molecular target: FcγRIIIa V158 (human) (UniProt P08637); test: SPR (Biacore 8K), ratio of 1/Kd values
[5] = molecular target: FcγRIIIa F158 (human) (UniProt P08637); test: SPR (Biacore 8K), ratio of 1/Kd values

Chain of FcγRIIIa F158 (human) (P08637 17-208 limits assumed): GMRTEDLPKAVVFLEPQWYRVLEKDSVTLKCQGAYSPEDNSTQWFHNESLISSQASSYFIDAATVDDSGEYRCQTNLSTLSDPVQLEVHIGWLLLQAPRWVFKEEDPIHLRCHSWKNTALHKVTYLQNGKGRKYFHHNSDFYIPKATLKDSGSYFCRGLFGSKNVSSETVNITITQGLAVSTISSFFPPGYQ
Chain of FcγRIIIa V158 (human) (P08637 17-208 F176V limits assumed): as the sequence (P08637 17-208 limits assumed) above, with F160V counted along it
Chain of FcγRIIb (P31994 46-217 limits assumed): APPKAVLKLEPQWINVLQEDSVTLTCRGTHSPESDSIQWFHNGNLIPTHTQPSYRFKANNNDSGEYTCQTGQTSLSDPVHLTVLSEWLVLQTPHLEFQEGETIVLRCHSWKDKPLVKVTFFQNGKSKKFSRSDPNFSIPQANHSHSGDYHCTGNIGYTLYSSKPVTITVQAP

## Zolbetuximab (antibody)
[1]
  pKd: 7.06
[2]
  pKd: 4.86
[3]
  pKd: 6.37
[4]
  A/I (V158), affinity towards FcγRIIIa over affinity towards FcγRIIb: 161
[5]
  A/I (F158), affinity towards FcγRIIIa over affinity towards FcγRIIb: 32.9
